# Measured values reported in article PMC6358683.
# Assays:
# [1] = biological target: HA of A/New Caledonia/20/1999 (influenza A virus A/New Caledonia/20/1999) (UniProt Q6WG00)
# [2] = biological target: HA of A/Puerto Rico/8/1934 (influenza A virus A/Puerto Rico/8/1934) (UniProt P03452)
# C05 V110P (human) = test: BLI
Substance,"HAI, antibody concentration at the endpoint titer; virus A/New Caledonia/20/1999 [1] [µg/mL]","HAI, antibody concentration at the endpoint titer; virus A/Puerto Rico/8/1934 [2] [µg/mL]",Kd (C05 V110P (human)) [nM]
C05 V110P (antibody),0.2,,
C05 V110P-A117E (antibody),0.2,> 100,
HA of A/Puerto Rico/8/1934 (from UniProt P03452) (natural protein),,,2300
